In article doi:10.1101/390674 (bioRxiv, 2018):

Target: ribosomal protein uL16 (Escherichia coli (strain MRE600), UniProt P0ADY7 1-136)
Test: cryo-EM structure

B1: initiation factor 2, γ-isoform (natural protein)
chain: not shown
- binding result: binds
